Measurements published in a protein production outcome set (Wang et al. 2014).

Assay: label from the status in PepcDB records

Row | Sequence | protein production
1 | MQVSQANLNLNFDANSLQRGKRYFSQGRVQNLVRETEGMSIQVLRAEVSGSQRQLYITEVRFDRYLPGKINTFCSCPVGFRCKHAAAVILQANHEAGLSAEKYESEADTRYKYPTAETWLEQAASVFSSIDNASNPECLAYLLHIEPHRSQQTLSVNKVRRRKSGEYSRGSKTTVWSRTNLEYDRPKYLRESDIAPLTWLNALPTAFRVSPVLEGTTGAYFIESALKTRRFFLESTQNPPLQLGETLESGFEWMQLPDKQHWQLVSKALPSHIRLLNTSPAYYLDEKELLIGRVENSLDARTTALLQQCPPLAESQLQQALPDLAPILEKAGAVLPESFQVPSMVQAAPQPILQLYSLQHPAPGTLPLLMARLMFSYEGHRVAFSEQEPRVLVDGNNGPLLVIRDEDAEIEWLHRDLPDFKMAGTMTDHLEADMVNALPYGSFLDFTLPTRNQWLDFIAFDLPRLDAGGWQIEMDESFDIPVIEIDQLHGSLKPDEESPGWFDVEVGIDYNGTQIDLIPLLQQALVYLDLNNDSDDALPETLWLHNGDALIRVVSDRIRPLVRTLLSLLGKERGGKLRLPKLDAAQVMGDLAADWQCSAELRNLSEKLTSFQALNHVPVPSEVRAELRHYQQDGLNWLMFLREFGLGGVLADDMGLGKTLQTLACIQAEKTAGRLTAPALVVCPTTLIANWEAEAEKFTPGLKRLVIHGQRRKPFFDMVAEADLVITSYPLLHRDLEQHQNQSYSLAFFDEAQHLKNPATVTSKAARRLPAENRIALTGTPMENHLGELWALFDLILPGYLADQKIFREHYRKPIEEQGNQSRYAELSRRVRPFMLRRTKDQVTPELPEKTEIVRHVELNRQQKDLYETIRATMDKRIRKLLAEKGAARSQIEILDALLKLRQICCHPALLNPEETAGSAKLDSLMEMLEQLLDEGRKVIIFSQFTSMLALIETTLKAAGIGYEKLTGQTRDRATPVKRFQNGESPVFLISLKAGGTGLNLTAADCVIHYDPWWNPAAEQQATDRAWRIGQDKPVFVYRLITEGTVEERIQALQARKSQLADGLYGKADTFSSAITADDISVLFEK | failed
2 | MNSHCSHTFITDNRSPRARRGHAMSTLHKVKAYFGMAPMEDYDDEYYDDRAPSRGYARPRFDDDYGRYDGRDYDDARSDSRGDLRGEPADYPPPGYRGGYADEPRFRPREFDRAEMTRPRFGSWLRNSTRGALAMDPRRMAMMFEDGHPLSKITTLRPKDYSEARTIGERFRDGSPVIMDLVSMDNADAKRLVDFAAGLAFALRGSFDKVATKVFLLSPADVDVSPEERRRIAETGFYAYQ | failed
3 | MNNFTYEKLHNNLQYLKLNTIEELLDNCLEIAARDSKTTMEVLDYLFEQEKKHREAAAIERRMKSAGFPVKKMLEEFDFEFQSSINKKVIEDLATLRFVHNAENIVLLGPPGVGKSHLAIALGIEAVKAGISVHFTNTGNLIERLKIANREGILEKKIRDLMKFKVLIIDEIGYLPFDDEGAHCLFQLISRRYEKSSTILTSNKSYGEWGEIFKDHVIAAALLDRILHHCTTINIKGESYRLKERKKQGIKTGLIRHNSTEILENLEHHHHHH | not failed
4 | PLAGTITEADVRRYAASCCVQGVTTITDLHNDLADPTIEVYRSATSQADFGVRLVPALAAVSHTPEQAIAKLETLRGHASDKLHYGIVKLVVDGSIQGFTARLRWPGYHNGAANGLWYIAPEELPRLVEAYHRAGVQLHIHTNGDEATEVALDAIEAAQTVAPRPDHRHTLQHCQMASAAQFRRMKNLGVCANLFANHLYYWGDAHYELTMGPERAARLDATGTAQRIGVPFAIHSDAPVTPLAPLFTAWCAVNRVSSSGRVLGRDTEALTTEQALAAITIGAAYTLKMDHLVGSIETGKYADFVVLDEDPLAVPPERLKEIAVWGTVVGG | failed
5 | MSLYEWLNALPKAELHLHLEGTLEPELLFALAERNRIALPWNDVETLRKAYAFNNLQEFLDLYYAGADVLRTEQDFYDLTWAYLQKCKAQNVVHVEPFFDPQTHTDRGIPFEVVLAGIRAALRDGEKLLGIRHGLILSFLRHLSEEQAQKTLDQALPFRDAFIAVGLDSSEVGHPPSKFQRVFDRARSEGFLTVAHAGEEGPPEYIWEALDLLKVERIDHGVRAFEDERLMRRLIDEQIPLTVCPLSNTKLCVFDDMSQHTILDMLERGVKVTVNSDDPAYFGGYVTENFHALQQSLGMTEEQARRLAQNSLDARLVKEGHHHHHH | not failed
6 | MIETTAALAEACTELAKSEFITIDTEFLRETTFWPELCLVQMASPTLEVLVDPLAKGIDLTPMFELMANPNVVKVFHAARQDIEIIYHLGGLIPHPIFDTQVAAMVCGFGDSISYDQLVQKIKNVQIDKSSRFTDWSRRPLTEKQLDYALADVTHLRDVYLSLKAQLEREGRSLWLTEEMNILESRDTYDMHPDDAWLRLKSRLRKPTELAILKFVAAWREREARSRNVPRSRVLKDDGIFEIAQQQPKDAEALSRLRTIPKGWERSASGTAIIETVNAALALPKEEMPKAPRHSHAPEGSGAAVELLKVLLKLTADKHGVAAKVIANSDDLDKIASEGENATVAALTGWRRELFGDVALKLINGEVALRFAGKKVEAVEVEAAASES | failed
7 | MMSTKNGTNQARTSRDVGSELIYLTKALKAPALRDAAARLAERARDEGWSHEEYLAACLQREVAARDSHGAEGRIRAARFPSRKSLEDFDFDHQRSVKREVIAHLGTLDFVAGKENVIFLGPPGTGKTHLATGLGIRACQAGHRVAFGTAAQWVARLAEAHQAGRLSDELTRLGRIPLIVVDEVGYIPFEPEAANLFFQFISGRYERASVIVTSNKPFGRWGEVFGDDTVAAAMIDRLVHHAEVISLKGDSYRMRGRDLGRVPAANTGE | failed
8 | MAQIPFDLKHADFARLAEVGLRLPGLREVKTLTQTSWIEAPTTIIGTVVSGAELQVGAFCSLSGGTLNNVHIGRYSSIAAGTIIGVHEHPTSWLTTSRTSYWPQVYGWDELIAPDRAAEIRAGKRPFTRSCPITEIGHDVWIGQGCFIKSGVRIGHGSVIGARATVTKDVPPYSIVLGTPGRVVRTRVPEPLIERLLAVEWWRYSIYDLFAAPFDDVARALDVIEDRIAEGAIKPYEAPLVTPADLAEPLGLAARLAARFPRPLARAS | failed
9 | MRRKNLFWDDVYKGTPPWDLDHPQPAFEALIKNGEIKPGRALDIGCGRGENAIILAMNGCDVIGIDLAENAISDAKAKATERHVKVKFVVEDALQMNRLFEEGEFDVVIDSGLFHVMMDEQRRVFAQQVHRVLREGGKYFMLCFSDKEPGEYELPRRLSKAEIESTFSPVFDITYIKEAVFDSLLSPSRRKAYLLSATRSLEHHHHHH | failed
10 | MGRIAWVVRADRPCAATNTHINEPPRRALTSGPGVFIRRTVAAAATRRRYPSAMAIHADTHDDLRLFQTGEHACGYWSDRRARDLVLDPHDPRLGAIYPQALAWGFRRSGDLVYRPHCERCRACVPVRIAVDAFHPDRSQRRCLTRNQDLVVRVVAAERTDEQLALYRQYLKYRHPGGGMDEHGATEFDQFLIGGWSHGRFLEIREPAIAHLPGRLLAVAVTDVTEHALSAIYTFYAPEAAARSLGTFAILQQIQWAQRERRAHVYLGYWIEGHAKMNYKRRFSALEAYDGRHWCDLPAHPSGT | failed
11 | MTAHWRYLNSLQPLSNLFIQAALRRKVTGTQLPDLGLRSWIAVDNDKLEAYRKVCGFADSSLLPPTYPHALAFTLQMQLMTSPEFPFPLLGLIHLGNQIRTLRPLGGVSQLYISVQATDLRPHPKGATFTLLTQAEDGMGLLWEEESTLLCTAVHLEDAPVPMPEAYLRPLIELDRWRASAQIGREYAKVSGDYNPIHLSAASAKLFGFPRAIAHGMWLKARALAALEDHLPASNVQISVQFQKPVRLPADVTLSASAAGSHGEFRVEGQEGIVHMIGSWQPATD | failed
12 | MMSSSTTTLVDAVASPQAQQAVYIGLVNPKTPTNVGGIMRASGCYGVDAVFYTGKRYEYAARGPQQYNADTQSAAERIPLTGVTSLLDAIPAGTQLVCVDLVLGATPLPEFVHPERAFYVFGPEDGTIGQEIIDRADAVVYVPTVGCMNLAASVNVLLYDRLAKTYRKQATNEAEFDGDALIRTSRDNNNRTRVKTTKRESSK | failed
13 | MRNLKELKWSDLKTGIFFLLGLGFAAYLGLVIGKNTSIFTGVTTIKVMTRDVNGLAENNFVSVAGKKIGTVSKLDFSTQNDSLFVVAELKLQNEYANLVTKDSKASIRSLGVLGDKYVDIKAGTGKPVKEGDFIQLVPEDGLSALTDNAKSTIEKLNTLLDKLNNGDGPAGRLISDKQMGEDLQKTVMNLRKSSDELTRVSAELHNGKGLLPKLINDKSLADNTEQTIVNLKNAAAETETLMKQLNEGKGTLGKLNSDPALYNNLSKTLISLDTLLIDLKKRPNRYVRFTLF | failed
14 | MLTFEKVLEIFADYLAADKTIEVYISRHGCVRVEFDQDFHYCTGEVCHTPRKLFDLLSDDYQTYLEIELTKGRRELTEDDIKEADTLCKRYLDRWKEELGLEHHHHHH | not failed
15 | KRASSKWLVCIGTSPSSAKLIRWTARTAEAFRAPWTALYIENEENDYMTKAEKKCLRETMELAERLGAEIVTLAGHDIAETVAEYARLTGVTNIVVGKSRRRMGLRSLFEEDFEDRLITHLDNVDMHIIP | failed
16 | MTKQPDLLKVDWSAIPAPDDDGAAAHLPGARIQPVALPATDGSSVTLSSLPGRTVLFIYPRTGVPGQISLVDDWDMIPGARGCTPQTCSFRDLFTDLKTAGADAVFGLSTQSSAYQSEMATRLHLPFPVLSDESLELTRALNMPTMQVAGMTLLKRMALIIDDGRISHVFYPVFPPDRNAGDVLEWLKANPR | failed
17 | MSSGNVFLLSIASSAGMNIRLVHRLIAASCAVVLCSTVGIPAGRAGDPFRSSNPQPISASTAAAFTAAFQQGNYPAAEQALQQALRQDSSDPLVFALAGSLAFAQQNRQAFADYARQTKSKAQAIAPQQPLRSQLYIAVGELMMAASTLLPQLTGDGGVPLAAVPQALQSLQTVYGSLRAAAQINPNDPELNLVQGFVDLIVATNLPLANPSGAIAKLEKASPRYLADRGIALGLRNLKRYPEAIQYVDRAIAAAPENPELRYLKAQILVEQSKATGDANLRRAAAAEFQKALAKSSQLPQPLVWQLFFEACNNQKTFDNRGQDCVSLRDQVTQAPGPWGPATLPPL | failed
18 | MKRDRNLTWHRTDALRPNLEGRQVAVIGGTGGIGRALSRHLASLDARVVVVGQTFRDADVPGIRFIQADLSLMHEAQRVAGLLPAQTLDLVIFTTGIFAAPQRQETTEGIERDLAVSYLNRLVMLRAIAPTLGTQRARPAMKPRVFIMGYPGSGQTGAPDDLNAEAPYKAMAAHMNTVAGNEMLVLDAALRYPQATFFGLNPGLIKTGIRDNFFGKGSVKSRIAETLIGWLTPTADTYAQRITPLLMSPDLEGHSGAMFNSKGQAILPSPGLGEAHIRKFMAASEALANRTGIHPIGQEDRP | failed
19 | GKVSIPSIVYDIVRKNGGNKILLVGNGMLASEIAPYFSYPQYKVTVAGRNIDHVRAFAEKYEYEYVLINDIDSLIKNNDVIITATSSKTPIVEERSLMPGKLFIDLGNPPNIERGNNVITLDEIYEISKKNEMLREEKINQ | not failed
20 | AQAALEASEEKFAKAFHSSPDSITITEIESGRYVEVNDGFCRLTGFSAREVLGRTAHEIGIWTDTVQREFMIDELRQKGRMHHREMNGRDKKGAPLVLDVSVEFITLNNTACLLMNARDIG | failed
21 | NQPAYKDSSLSPEERAEDLLQQLTLEEKVALMMDNSKPVERLGIKPYNWWNEALHGVARSGLATVFPQPIGMAASFEPDAIHTIYTAVSDEARAKNAAYSAAGSYERYQGLTMWTPTVNIYRDPRWGRGIETYGEDPYLTSVMGVNVVKGLQCMDANQKYDKIHACAKHFAVHSGPEWNRHEFNAENIKPRDLHETYLVPFEALVKEAKVKEVMCAYNRLEGDPCCGSDRLLMQILRQDWGYDGIVLSDCGAIDDFYREKGHKTHPDAESASAAAVLSGTDLECGSSYKALVESAKKGLISEKDIDVSVKRLLKARFELGEMDDP | failed
22 | MKIRVDDITDQPKILSFQEPSEAFPSLAELQATGESEFLSPLMVELAVSKEYGHIRVKGSVAVKIRFVCSRCLVPFDADISSAFTMFYSEGSRIDSDEDEIELAEEDLVSVFYEGDEIDFAPEIAEQVIMELPLKPLCGEGCKGLCVTCGADLNEGECGCERTTFNVKFSALKNFKVEKLEHHHHHH | not failed
